PMC10267580

Target: Rab6B^Q72L, GTPase domain (residues 8-176), constitutively active mutant (mouse) (UniProt P61294)
Assay: ITC; MicroCal PEAQ-ITC, 25 °C, 50 mM Tris pH 7.5, 100 mM NaCl, 2 mM MgCl2; typically one protein (400 μM) in the syringe into its binding protein (40 μM) in the cell

Chain of Rab6B^Q72L, GTPase domain (residues 8-176), constitutively active mutant (mouse) (P61294 8-176 Q72L): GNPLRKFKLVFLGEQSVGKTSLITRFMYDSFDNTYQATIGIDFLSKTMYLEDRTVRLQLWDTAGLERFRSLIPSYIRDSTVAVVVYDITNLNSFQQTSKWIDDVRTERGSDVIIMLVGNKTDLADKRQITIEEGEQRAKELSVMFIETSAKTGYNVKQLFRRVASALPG

**Q.** For “ELKS2_RBD, the region of ELKS2 corresponding to ELKS1 residues 849-922 (domain or fragment)”, which Kd is on record?
**A.** 8 µM
